The target of test [1] is T1, Aβ(1-18) (human).
T1 construct: also called wildtype peptide Aβ(1-18)
T1 peptide: DAEFRHDSGYEVHHQKLV
Description: SPR, antibody captured on goat anti-mouse IgG, peptide as analyte; SPR; very weak, KD 931,000 nM. The text has this:
(§1) In order to bind analyzing antibodies K11 and K119 to a CMS sensor Chip (GE Healthcare, Product code BR100012), approximately 15,000-20,000 RU of goat anti mouse IgG (Thermo Fisher Scientific, PA1 28555) were immobilized first. To immobilize the anti-mouse IgG, the carboxymethylated dextran surface of the sensor chip was activated by mixing 0.1 M N-hydroxysuccinimide (NHS) with 0.4 M N-ethyl-N′-(dimethylaminopropyl)carbodiimide hydrochloride (EDC) 1:1. EDC/NHS was applied to the sensor chip for 10 minutes with a flow rate of 10 μl/min. Goat anti mouse IgG was diluted to 50 μg/ml in 10 mM Sodium acetate, pH 5.5 and injected for 2×3 minutes with a flow rate of 10 μl/min. After deactivation with 1 M ethanolamine, pH 8.5 for 2×7 minutes with a flow rate of 10 μl/min, 0.1 M glycine, pH 1.7 was applied to the sensor chip with a flow rate of 30 μl/min for 3 minutes, followed by a washing step with HBS-EP buffer (GE Healthcare, Product code BR100188).
Binding of about 2,000 RU anti isoAsp7-Aβ antibodies occurred with a flow rate of 10 μl/min. […]
(§2) Kinetic constants were determined by applying Aβ peptides at different concentrations and calculated from the combined set of data by using BIAevaluation software (Biacore AB) (FIG. 2A and FIG. 3).

In the next test the target is T2, Aβ(1-30).
T2 construct: also called non-modified Aβ peptide
As to the kind of experiment: sandwich ELISA: K11 immobilised at 2 µg/ml as capture, peptide serially diluted, HRP-conjugated 4G8 as detection, absorbance 450/540 nm. The method, then:
FIG. 8: Sandwich ELISA for quantification of isoAsp7-Aβ and total Aβ concentrations in biological samples. Capture antibodies K11 (A) and 3D6 (B) were diluted to 2 μg/ml and immobilized on microtiter plates overnight at 4° C. Blocking occurred for 2 hours at room temperature. isoD7-Aβ(1-30) (SEQ ID NO: 51) and Aβ(1-30) (SEQ ID NO: 52) were serially diluted and added to the wells in duplicate. After an incubation period of 2 hours at 4° C., plates were washed six times with TBS-T. HRP-conjugated anti Aβ antibody clone 4G8 was added in a final concentration of 1 μg/ml and incubated for 1 hour at 4° C. After washing with TBS-T, a color reaction with TMB was performed and stopped by the addition of 1.2 N H₂SO₄. The standard curve was calculated from measured absorption at 450/540 nm by a 4-Parameter-Logistic-Fit: y=(A2+(A1−A2)/(1+(x/x₀)\hat{ }p).
In order to determine the amounts of isoD7-Aβ in biological samples, an indirect Sandwich ELISA was established. Therefore, K11 was diluted in PBS to 2μg/ml and immobilized on polystyrene 96-well microtiter plates overnight at 4° C. Blocking occurred for 2 hours at 4° C. with ELISA Blocker (Thermo Fisher Scientific). […] Absorption at 450/540 nm was determined by a Tecan Sunrise plate reader. The standard curve was calculated from measured absorption by a 4-Parameter-Logistic-Fit: y=(A2+(A1−A2)/(1+(x/x0)\hat{ }p).

The target of the next test is T3, isod7-Aβ(1-17) (human, D-isoaspartate at position 7).
T3 construct: also called D-isoaspartate isomer containing peptide derivative
T3 peptide: DAEFRHXSGYEVHHQKL
Description: SPR, antibody captured on goat anti-mouse IgG, peptide as analyte; SPR. The method, then: (§3) FIG. 2: Determination of binding constants of immobilized K11 with different Aβ-peptides by SPR analysis. 1,500-2,000 RU of antibody K11 were immobilized on a CMS chip by binding to goat anti mouse IgG. Monomeric Aβ peptides were injected in varying concentrations. KD values were calculated by using single-cycle kinetic analysis of BIAevaluation software. A—isoD7-Aβ(1-18) was applied at 1 nM, 3 nM, 9 nM, 27 nM, 81 nM and 243 nM. B—isod7-Aβ(1-17) was applied at 1 nM, 3 nM, 9 nM, 27 nM, 81 nM and 243 nM. C—Aβ(1-18) was applied at […], 30 nM, 90 nM, 270 nM, 810 nM and 2430 nM.
as §1, with “After deactivation with 1 M ethanolamine, pH 8.5 for 2×7 minutes with a flow rate of 10 μl/min, 0.1 M glycine, pH 1.7 was applied to the sensor chip with a flow rate of 30 μl/min for 3 minutes, followed by a washing step with HBS-EP buffer (GE Healthcare, Product code BR100188).” left out

The target in test [2] is T1, Aβ(1-18). Described as above. The method, then:
as §3
as §1, with “After deactivation with 1 M ethanolamine, pH 8.5 for 2×7 minutes with a flow rate of 10 μl/min, 0.1 M glycine, pH 1.7 was applied to the sensor chip with a flow rate of 30 μl/min for 3 minutes, followed by a washing step with HBS-EP buffer (GE Healthcare, Product code BR100188).” left out

A further test addresses T4, Aβ(1-40).
T4 construct: Synthetic peptide; also called wildtype Aβ(1-40)
Description: SPR, antibody captured on goat anti-mouse IgG, peptide as analyte.
From the text: as §1
(§4) Binding of about 2,000 RU anti isoAsp7-Aβ antibodies occurred with a flow rate of 10 μl/min. To achieve this, antibodies were diluted to 25 μg/ml in HBS-EP buffer and applied to the sensor chip, followed by washing with HBS-EP until the RU signal remains constant.
as §2

The target of another test is T5, Mouse isoD7-Aβ(1-18) (mouse).
T5 peptide: DAEFGH[βAsp]SGFEVRHQKLV
Described as above.
From the text: as §1, §4, §2

A further test has as its target T6, pE3-isoD7-Aβ(3-18).
T6 peptide: [pGlu]FRH[βAsp]SGYEVHHQKLV
The description is as above.
From the text: as §1, §4, §2

A further test concerns the target T7, pE3-Aβ(3-18).
T7 peptide: [pGlu]FRHDSGYEVHHQKLV
Described as above.
From the text: as §1, §4, §2

The target in the next test is T8, isoD7-Aβ(1-40) (isoAsp at position 7).
T8 construct: Synthetic peptide
The description is as above.
From the text: as §1, §4, §2

Numbered stars: 1 amine (or outer) side, 2 acyl side, 3 side chain; on linkers, the order of the positions; unused ones are H or OH. Square brackets hold non-standard residues; d marks the D form. Ends that are not written are not given here. βAsp = O=C(O)[C@H](CC(=O)[*:2])N[*:1]; pGlu = O=C1CC[C@@H](C(=O)O)N1

T8 sequence (peptide, as listed by the source): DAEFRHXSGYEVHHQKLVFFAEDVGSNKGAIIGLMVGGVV
T4 sequence (peptide, as listed by the source): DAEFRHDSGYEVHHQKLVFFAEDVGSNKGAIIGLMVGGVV
T2 sequence (peptide, as listed by the source): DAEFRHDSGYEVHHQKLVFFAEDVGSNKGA

B1: monoclonal antibody K119 (antibody, mouse IgG2a, kappa, V domains shown)
VH: EVKLVESGGGLVQPGGSLRLSCATSGFTFTDYYMSWVRQPPGKALEWLGFIRNKANGYTTEYSASVKGRFTISRDNSQSILYLQMNTLRTEDSATYYCTRDIPTIMDYWGQGTSVTVSS
VL: DIVMSQSPSSLAVSAGEKATMSCKSSQSLFNSRTRKNYVAWLQQKPGQSPKLLISWASTRESGVPDRFTGSGSGTDFALTITNVQAEDLAVYYCKQSYNLRAFGGGTKLEITR
notes: Mouse monoclonal antibody from a hybridoma
Consider B1, for which binding in the test with Aβ(1-18) [1] was put at a Kd of 931000 nM.

B2: monoclonal antibody K11 (antibody, mouse IgG1, kappa, V domains shown)
VH: QVQLKESGPGLVAPSQSLSITCTVSGFSLTSYGVHWVRQPPGKGLEWLGALWASGNTDYSSTLMSRLSISKDNSKSQVFLKMNSLQTDDTAMYYCARDRGILTGGYFDVWGAGTTVTVSS
VL: DIVMSQSPTSLAVSAGEKVTMSCKSSQSLLNSRNRKNYLAWYQQKPGQSPKLLIYWASTRDSGVPDRFTGSGSGTDFTLTISSVQAEDLAVYYCKQSYNLRTFGGGTKLEIKR
notes: Mouse monoclonal antibody from a hybridoma; also called clone K11; anti isoAsp7-Aβ antibody K11
For the molecule B2, the binding result with Aβ(1-30) is “no binding (tested: 140 pg/ml)”. Also, the Kd stood at 2690 nM in the test with isod7-Aβ(1-17); 2700 nM with Aβ(1-18) [2]; 1670 nM with Aβ(1-40); 153 nM with Mouse isoD7-Aβ(1-18); 1.7 nM in the test with pE3-isoD7-Aβ(3-18); 402 nM with pE3-Aβ(3-18). In addition, binding in the test with isoD7-Aβ(1-40) was put at a Kd of 3.5 nM.

Values taken from patent publication US20200264197A1 (FRAUNHOFER GESELLSCHAFT ZUR F RDERUNG DER ANGEWANDTEN …, published 2020).
